B1: 1A6: monoclonal antibody, heavy chain SEQ ID No. 7, light chain SEQ ID No. 8; hybridoma CNCM I-3612; IgM k (antibody, V domains shown)
VH: EVQLQQSGPELVKPGASVKISCKTSGYTFTEYTLHWVKQSHGKSLEWIGGIDPNNGGTSYNQKFKGKATLTVDKSSSTAYMELRSLTSEDSAVYLCARSNSYYFDYWGQGTTLTVSS
VL: DIQMTQTTSSLSASLGDSVTISCRARQDIRNFLNWYQQRPDGTVKLLIYYTSRLHSGVPSRFSGSGSGTDYSLTISNLDQEDVATYFCQQGNTLPFTFGSGTKLEIK
modifications: mus musculus
notes: hybridoma CNCM I-3612; IgM k
B2: 2E11: monoclonal antibody, heavy chain SEQ ID No. 23, light chain SEQ ID No. 24; hybridoma CNCM I-3615; IgG1 k (antibody, V domains shown)
VH: EVQLQQSGAEVVKPGASVKLSCTASGFNIKDTYMHWVKQRPEQGLEWIGRIDPANGNTKSDPKFQGKAIKTADTSSNTAYLQLSSLTSEDTAVYYCTSGYTNYVWFTYWGQGTLVTVSA
VL: DIVMSQSPSSLAVAAGEKVTMSCKASQSLLNSRTRKNYLAWYQQKPGQSPKLLIYWASTRESGVPDRFTGSGSGTDFSLTISSVQAEDLAVYYCKQSYNLYTFGGGTKLEIK
modifications: mus musculus
notes: hybridoma CNCM I-3615; IgG1 k
B3: 3C11: monoclonal antibody, heavy chain SEQ ID No. 31, light chain SEQ ID No. 32; hybridoma CNCM I-3614; IgM k (antibody, V domains shown)
VH: QVQLKESGPGLVAPSQSLSITCTVSGFSLSSYGVHWVRQPPGKGLEWLGVIWVGGTTNFKSALMSRLSISKDNSKSQVFLKMNSLQTDDTAMYYCARERPYGNPLVDWGQGTLVTVSA
VL: DIVMTQSHKFMSTSVGDRVSITCKASQDVSTAVAWYQQKPGQSPKLLIYSASYRYTGVPDRFTGSGSGTDFTFTISSVQAEDLAVYYCQQHYSNPRTFGGGTKLEIK
modifications: mus musculus
notes: hybridoma CNCM I-3614; IgM k
B4: 1A9: monoclonal antibody, heavy chain SEQ ID No. 15, light chain SEQ ID No. 16; hybridoma CNCM I-3613; IgG1 k (antibody, V domains shown)
VH: QIQLVQSGPELKKPGETVKISCKASGQTFTNYGMNWVKQAPGKGLKWMGWINTYTGEPTYADDFKGRFAFSLETSASTAYLQINNLKNEDTATYFCARGGYYRYAAYWGQGTLVTVSA
VL: DIQMTQSPASLSASVGETVTITCRASGNIHNYLAWYQQKQGKSPQLLVYNAKTLADGVPSRFSGSGSGTQYSLKINSLQPEDFGCYFCQHFWTTPYTFGGGTKLELI
modifications: mus musculus
notes: hybridoma CNCM I-3613; IgG1 k
B5: 3G7: monoclonal antibody, heavy chain SEQ ID No. 39, light chain SEQ ID No. 40; hybridoma CNCM I-3616; IgM (antibody, V domains shown)
VH: QVQLQQSGPELVRPGTSVKISCKASGYTFTNYWLGWVKQRPGHGLEWIGDIFPGGIYTNYNEKIKGEATLTADTSSSTAYLQLSSLTSEDSFVYFCARFDDFDPFFASWGQGTLVTVSA
VL: DVLMTQTPLSLPVSLGDQASISCRSSQTIVHSNGNTYLEWYLQKPGQSPKLLIYKVSNRFSGVPDRFSGSGSGTDFTLNISRVEAEDLGIYYCFQSSRVPYTFGGGTKLEIK
modifications: mus musculus
notes: hybridoma CNCM I-3616; IgM

Columns and labels:
[1] = system: different cell lines; experiment: Recognition of different cell lines by the antibodies with the FACSCAN instrument; assay type: cell-based; settings: FACSCAN analysis of a panel of tumor lines
Description: The hybridomas secreting antibodies recognizing the resistant tissues, and recognizing neither the tumors from the control batch PBS nor the native A549 cell which was used for establishing the tumor in vivo, are cloned and frozen. The antibodies are then produced in ascite liquid, purified, retested in immunohistochemistry before being tested in vivo on cells expressing a surface structure or antigen recognized by the antibodies (these cells were selected beforehand by FACSCAN analysis of a non-exhaustive panel of tumor lines available for each antibody).
Table 6 below as for it, groups the cells recognized by these antibodies (Recognition of the antibodies selected in histology with the FACSCAN instrument, of different cell lines).

[2] = system: BxPC3 cells; experiment: Pancreas xenograft model BxPC3; assay type: in vivo, athymic "Nude" mice; settings: 1 mg/dose two times a week; results in FIG. 7
Method: 10.10^6 BxPC3 cells are grafted on athymic “Nude” mice. Five days after the grafting, the tumors are measurable and the mice are divided into two batches of six mice with tumors of homogenous size. The mice are either treated with PBS (negative control) or with the antibody 2E11 (1 mg/dose), two times a week. Tumor volume tracking is carried out twice a week.
The results are illustrated in FIG. 7.

Molecule | In vivo model (cells recognized by these antibodies) ([1]; clone D10) | anti-tumoral activity (tumor volume) [2] | In vivo model (cells recognized by these antibodies) [1]
B1 | LnCap/HT29 |  | 
B2 |  | validate the functional activity | HT29/BxPC3/H69
B3 |  |  | Colo205
B4 |  |  | HepG2/H69/LnCap
B5 |  |  | DU145

Source: patent US8241646B2, “Method for generating active antibodies against a resistance antigen, antibodies obtained by said method and their uses” (Pierre Fabre Medicament, priority 2006, dated 2012)
